In patent US20100280227A1 (Genentech, published 2010):
Changes are numbered by the printed parent chain.

T1: mouse BR3 extracellular domain (mouse, UniProt Q9D8D0 1-64)
T1 construct: also called mBR3-ECD; mBR-ECD
T1 sequence: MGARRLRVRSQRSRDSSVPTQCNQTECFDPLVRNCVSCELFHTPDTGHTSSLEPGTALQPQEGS

B1: V3-46s IgG (antibody, V domains shown)
VH: EVQLVESGGGLVQPGGSLRLSCAASGFTISSSSIHWVRQAPGKGLEWVAWVLPSVGFTDYADSVKGRFTISADTSKNTAYLQMNSLRAEDTAVYYCARRVCYNRLGVCAGGMDYWGQGTLVTVSS
VL: DIQMTQSPSSLSASVGDRVTITCRASQDVSTAVAWYQQKPGKAPKLLIYSASFLYSGVPSRFSGSGSGTDFTLTISSLQPEDFATYYCQQSQISPPTFGQGTKVEIKR
notes: also called hV3-46S; HuV3-46s-IgG
B2: Hu2.1-30 IgG (antibody, V domains shown)
VH: EVQLVESGGGLVQPGGSLRLSCAASGDSITRGYWNWVRQAPGKGLEWVGYINYSGTTYYNPSLKSRFTISRDTSKNTFYLQMNSLRAEDTAVYYCANLNYYGAMDYWGQGTLVTVSS
VL: DIQMTQSPSSLSASVGDRVTITCRASESVDDYGISFMHWYQQKPGKAPKLLIYRASDLESGVPSRFSGSGSGTDFTLTISSLQPEDFATYYCQQTSKDPWTFGQGTKVEIKR
notes: humanized IgG; also called h2.1-30
B3: Hu2.1-46 IgG (antibody, V domains shown)
VH: B2 VH with L98S, Y100F
VL: B2 VL
notes: humanized IgG; also called h2.1-46
B4: Hu9.1-88 IgG (antibody, V domains shown)
VH: EVQLVESGGGLVQPGGSLRLSCAASGFPVTGSYVSWVRQAPGKGLEWVGFIRDKANGYTTEYNPSVKGRFTISRDTSKNTLYLQMNSLRAEDTAVYYCAQVRRALDYWGQGTLVTVSS
VL: DIQMTQSPSSLSASVGDRVTITCKSSQSLLYSSNQNNYLAWYQQKPGKAPKLLIYWASTRESGVPSRFSGSGSGTDFTLTISSLQPEDFATYYCQQYYTYPYTFGQGTKVEIKR
notes: humanized IgG; also called h9.1-88
B5: h9.1-70 IgG (antibody, V domains shown)
VH: B4 VH with G26D, F27S, V29R, T30S, S32Y, V34I, R74A, L81A
VL: B4 VL with T59I, E61D
B6: h9.1-73 IgG (antibody, V domains shown)
VH: B4 VH with F27L, V29M, T30A, S32F, V34T, R74A, L81A
VL: B4 VL with S58Q, T59H, R60L, E61D
B7: chimeric 9.1 IgG (antibody, V domains shown)
VH: EVKLVESGGGLVQPGGSLRLSCAISGFTVTAYYMSWVRQPPGKALEWLGFIRDKANGYTTEYNPSVKGRFTISRDNSQSIFYLQMNTLRAEDSATYYCAQVRRALDYWGQGTTVTVSA
VL: DIVMSQSPSSLAVSVGEKVTMSCKSSQSLLYSSNQNNYLAWYQQKPGQSPKLLIYWASTRESGVPDRFTGSGSGTDFTLTISSVKAEDLAVYYCQQYYTYPYTFGGGT
notes: also called Ch 9.1 IgG; ch 9.1
B8: Hu2.1-94 IgG (antibody, V domains shown)
VH: B2 VH with F78L, N97T, L98S, N99H, Y100N, Y101T, A103E
VL: B2 VL
notes: humanized IgG; also called h2.1-94
B9: 35 (Fab, V domains shown)
VH: B1 VH with S32N, L52T, S54G, F57S
VL: B1 VL with Q92L, I93M, S94T
notes: also called V3-35
B10: V3-46 phage clone (Fab, V domains shown)
VH: B1 VH with S31N
VL: B1 VL
notes: also called V3-46 WT; clone 46
B11: 41 (Fab, V domains shown)
VH: B1 VH with T28S, S30R, S31N, S32N, V55N, F57V
VL: B1 VL with Q92G
notes: also called V3-41; clone 41
B12: 37 (Fab, V domains shown)
VH: B1 VH with T28S, S31R, S32R, V51I, L52T, S54L, V55Y, F57S, D59H
VL: B1 VL with Q92R
notes: also called V3-37
B13: V3-46s-42 Fab (Fab, V domains shown)
VH: B1 VH
VL: DIQMTQSPSSLSASVGDRVTITCRASEDISTAVAWYQQKPGKAPKLLIYAASFLYSGVPSRFSGSGSGTDFTLTISSLQPEDFATYYCQQSQISPPTFGQGTKVEIK
notes: soluble Fab in SPR; also called V46s-42
B14: V3-46s-10 phage clone (Fab, V domains shown)
VH: B1 VH
VL: B13 VL with T31S, Y49F, F53Y, Y55F, I93V
B15: V3-46s-1 phage clone (Fab, V domains shown)
VH: B1 VH
VL: B13 VL with S30A, A32S, Y49F
B16: V3-46s-37 phage clone (Fab, V domains shown)
VH: B1 VH
VL: B13 VL with E27Q, I29V, S30A, Y49F
B17: V3-46s-7 phage clone (Fab, V domains shown)
VH: B1 VH
VL: B13 VL with T31S, A32S, Y49F, A50S, Y55F, Q92E, I93V
B18: V3-46s-33 phage clone (Fab, V domains shown)
VH: B1 VH
VL: B13 VL with D28E, Y49F, A50S, F53Y, Q92E, I93V
B19: V3-46s-29 phage clone (Fab, V domains shown)
VH: B1 VH
VL: B13 VL with D28E, S30A, Y49F, Q92E, I93V
B20: V3-46s-13 phage clone (Fab, V domains shown)
VH: B1 VH
VL: B13 VL with D28E, S30A, Y49F, F53Y, Y55F, I93V, S94A
B21: V3-46s-40 phage clone (Fab, V domains shown)
VH: B1 VH
VL: B13 VL with D28E, S30A, A32S, Y49F, A50S, F53Y, I93V
B22: V3-46s-12 phage clone (Fab, V domains shown)
VH: B1 VH with S30A
VL: B13 VL with T31S, Y49F
notes: differs from V3-46s in CDR-H1 as well
B23: V3-46s-34 phage clone (Fab, V domains shown)
VH: B1 VH
VL: B13 VL with T31S, Y49F, A50S, Y55F, I93V
B24: V3-46s-31 phage clone (Fab, V domains shown)
VH: B1 VH
VL: B13 VL with E27Q, S30A, A32S, Y49F, F53Y, Y55F, I93V
B25: V3-46s-45 phage clone (Fab, V domains shown)
VH: B1 VH
VL: B13 VL with I29V, T31S, Y49F, F53Y, Y55F, Q90H, I93V

These binders were tested against T2, human BR3 expressed on cells (human, UniProt Q96RJ3 1-184) (assay: BJAB cells, direct binding).
T2 construct: whole, on cells; also called BR3 on BJAB cells; cell surface BR3
Experimental: Direct and competitive binding assays were performed as follows. For the direct binding assay, IgG antibody samples were serially diluted in cold assay buffer to concentrations ranging between 300-0.02 nM. Samples (100 μl) were added to the pelleted cells, and the plates were incubated for 45 min on ice. An additional 100 μl assay buffer was then added to each well, and the plates were centrifuged at 1200 rpm for 5 min at 4° C. After carefully aspirating the supernatant, the cells were washed two additional times with 200 μl assay buffer. An anti-mouse IgG Fc-HRP or goat anti-human IgG Fc-HRP, as appropriate, was diluted 1/10,000 in cold assay buffer was added (100 μl/well, Jackson ImmunoResearch, West Grove, Pa.), and the plates were incubated on ice for 45 min. Following two washes with 200 μl cold assay buffer, tetramethyl benzidine (TMB, Kirkegaard & Perry Laboratories, Gaithersburg, Md.) was added, and color was allowed to develop for 10 min. One hundred microliters 1 M H₃PO₄ was added to stop the reaction. The plates were then read on a microplate reader at 450 nm with a 620 nm reference. In the direct binding assay, the indicated concentrations of mAbs were added to BJAB cells and bound mAb was detected.

| Binder | EC50 |
| --- | --- |
| B1 | 1.8 nM |
| B2 | 0.11 nM |
| B3 | 0.11 nM |
| B4 | 0.43 nM |
| B5 | 0.33 nM |
| B6 | 0.79 nM |
| B7 | 0.36 nM |

These binders were tested against T3, human BR3 extracellular domain (human, UniProt Q96RJ3 1-61) (assay: SPR, BR3 ECD on chip;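 further: Anti-BR3 antibodies passed over the chip at high flow in PBS with 0.05% polysorbate 20, on and off rates fitted together globally to a 1:1 binding model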).
T3 construct: biotinylated where used as tracer; also called hBR3-ECD; BR3-ECD
Experimental: After coupling, unoccupied sites on the chip were blocked by injecting 20 μl of 1M ethanolamine, pH 8.5. The running buffer was PBS containing 0.05% polysorbate 20. […] The binding surface was regenerated by injecting 20-30 μl of 10 mM glycine.HCl (pH 1.5). […] Data were analyzed using a 1:1 binding model using global fitting. The association and dissociation rate constants were fitted simultaneously (BIAevaluation software).
A high flow rate was used in order to minimize mass transport effects.

| Binder | Kd | koff | kon |
| --- | --- | --- | --- |
| B2 | 0.017 nM | 4e-05 s⁻¹ | 2.41e+06 M⁻¹ s⁻¹ |
| B3 | 0.02 nM | 4.5e-05 s⁻¹ | 2.2e+06 M⁻¹ s⁻¹ |
| B8 | 0.037 nM | 6.6e-05 s⁻¹ | 1.77e+06 M⁻¹ s⁻¹ |
| B4 | 0.025 nM | 4.9e-05 s⁻¹ | 1.94e+06 M⁻¹ s⁻¹ |

What follows are binders tested against T3, human BR3 extracellular domain (assay: phage competition ELISA).

| Binder | IC50 |
| --- | --- |
| B9 | 0.8 nM |
| B10 | 0.2 nM |
| B11 | 0.4 nM |
| B12 | 0.7 nM |

What follows are binders tested against T1, mouse BR3 extracellular domain (assay: phage competition ELISA).

| Binder | IC50 |
| --- | --- |
| B9 | 21.9 nM |
| B10 | 0.8 nM |
| B11 | 0.6 nM |
| B12 | 1.3 nM |

These binders were tested against T3, human BR3 extracellular domain (assay: SPR BIAcore-3000, Fab).
Text: (§1) Surface plasmon resonance assays on a BIAcore™-3000 were used to determine the affinity of the Fabs.

| Binder | Kd | koff | kon |
| --- | --- | --- | --- |
| B13 | 0.026 nM | 1.4e-05 s⁻¹ | 617000 M⁻¹ s⁻¹ |

The binders below were run against T1, mouse BR3 extracellular domain (assay: SPR BIAcore-3000, Fab).
Text: as §1

| Binder | Kd | koff | kon |
| --- | --- | --- | --- |
| B13 | 0.39 nM | 0.00029 s⁻¹ | 740000 M⁻¹ s⁻¹ |

Molecular target: T3, human BR3 extracellular domain
Assay: phage competition ELISA
Remark: another data set of the same source

| Binder | IC50 |
| --- | --- |
| B14 | 0.05 nM |
| B15 | 0.07 nM |
| B16 | 0.131 nM |
| B17 | 0.19 nM |
| B18 | 0.1 nM |
| B19 | 0.08 nM |
| B20 | 0.08 nM |
| B21 | 0.164 nM |
| B22 | 0.053 nM |
| B23 | 0.058 nM |
| B24 | 0.12 nM |
| B25 | 0.121 nM |

Molecular target: T1, mouse BR3 extracellular domain
Assay: phage competition ELISA
Remark: another data set of the same source

| Binder | IC50 |
| --- | --- |
| B14 | 0.193 nM |
| B15 | 0.3 nM |
| B16 | 0.32 nM |
| B17 | 0.96 nM |
| B18 | 0.724 nM |
| B19 | 0.55 nM |
| B20 | 0.713 nM |
| B21 | 0.53 nM |
| B22 | 0.209 nM |
| B23 | 0.79 nM |
| B24 | 0.342 nM |
| B25 | 0.37 nM |

What follows are binders tested against T4, variant human BR3-Fc fusion (assay: SPR, vBR3-Fc on chip;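 further: Anti-BR3 antibodies passed over chip-bound BR3-Fc in PBS with 0.05% polysorbate 20, on and off rates fitted together globally to a 1:1 binding model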).
T4 construct: produced in CHO cells; also called vBR3-Fc; vhBR3-Fc

| Binder | Kd | koff | kon |
| --- | --- | --- | --- |
| B3 | 0.041 nM | 3.96e-05 s⁻¹ | 978000 M⁻¹ s⁻¹ |
| B8 | 0.253 nM | 0.000121 s⁻¹ | 477000 M⁻¹ s⁻¹ |
| B4 | 0.2 nM | 0.000262 s⁻¹ | 1.3e+06 M⁻¹ s⁻¹ |
| B7 | 0.17 nM |  |  |

What follows are binders tested against T2, human BR3 expressed on cells (assay: BJAB cells, competition with biotin-BAFF).
Experimental: The diluted samples were added to the pelleted BJAB cells in 96 well plates as described above. After 45 min incubation on ice, the cells were washed twice with 200 μl cold assay buffer, and streptavidin-HRP (AMDEX, Amersham Biosciences, Piscataway, N.J.) diluted 1/5,000 in assay buffer was added (100 μl/well). The plates were incubated for a final 45 min on ice. After washing twice with cold assay buffer, color was developed using TMB, the reaction was stopped with H₃PO₄, and the plates were read as described above.

| Binder | IC50 |
| --- | --- |
| B1 | 1.9 nM |
| B2 | 0.17 nM |
| B3 | 0.19 nM |
| B8 | 5.1 nM |
| B4 | 0.6 nM |
| B5 | 0.82 nM |
| B6 | 1.78 nM |

What follows are binders tested against T3, human BR3 extracellular domain (assay: SPR, IgG on chip, BR3 ECD in solution).

| Binder | Kd | koff | kon |
| --- | --- | --- | --- |
| B2 | 0.02 nM | 7.6e-05 s⁻¹ | 3.57e+06 M⁻¹ s⁻¹ |
| B3 | 0.193 nM | 0.000432 s⁻¹ | 2.24e+06 M⁻¹ s⁻¹ |
| B4 | 0.911 nM | 0.000926 s⁻¹ | 1.02e+06 M⁻¹ s⁻¹ |
